Results as given in patent US20080118487A1.
Substitutions are numbered along the chain they refer to. Where no end group is shown, it is not given here.

How the values were obtained:
[1] = biological target: T1, recombinant bovine mature myostatin (bovine) (UniProt O18836); assay: cell-based or functional assay
T1 sequence (looked up): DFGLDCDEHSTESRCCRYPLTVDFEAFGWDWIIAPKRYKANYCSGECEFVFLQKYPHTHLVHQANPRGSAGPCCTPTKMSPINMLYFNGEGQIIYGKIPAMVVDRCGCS

[2] = biological target: T2, recombinant myostatin (Example 4); assay: cell-based or functional assay
T2 sequence (O14793 267-375, species assumed, looked up): T1 sequence (looked up) with E90K, G91E

B1: recombinant human MSV38 (rhMSV38) (peptide, not shown: small tags and cut ends)
chain: VHFPTPPNEEWIFFNVRRIIFLEVGFQFCSILGETALS
modifications: also: 36-aa N-terminal pET100/D-TOPO tag (enterokinase site, Xpress epitope, His), letters not shown
How did the proliferation of primary human myoblasts inhibited by myostatin (molar ratio rhMSV38 to myostatin) [1] turn out when B1 was run?
Its proliferation of primary human myoblasts inhibited by myostatin (molar ratio rhMSV38 to myostatin) is 10.

What about the restoration of proliferation of human primary myoblasts inhibited by myostatin (methylene blue assay) (molar ratio rhMSV38 to myostatin) [1] of the same binder?
Its restoration of proliferation of human primary myoblasts inhibited by myostatin (methylene blue assay) (molar ratio rhMSV38 to myostatin) is 1.

B2: recombinant ovine MSV47 (roMSV47) (peptide, not shown: small tags and cut ends)
chain: IIFLEVYIQFCSILGEAVFKRQSKSIHFCQNFKIIACLCNTAAFRMK
modifications: ends and bridges not checked; also: 36-aa N-terminal pET100/D-TOPO tag (enterokinase site, Xpress epitope, His), letters not shown
Which results are given for B2?
rescue of myostatin inhibited myoblast proliferation (C2C12, methylene blue assay) (molar ratio roMSV47 to myostatin) [1]: 1; restoring proliferation of C2C12 myoblasts inhibited by myostatin (molar ratio roMSV47 to myostatin) [1]: 10

B3: recombinant ovine myostatin splice variant 65 (roMSV65) (peptide, not shown: small tags and cut ends)
chain: VHFYTPPYGQWIFHKERKIIFLEVYIQFCSILGEAVFKRQSKSIHFCQNFKIIACLCNTAAFRMK
Which rescue of myostatin inhibited myoblast proliferation (C2C12, methylene blue assay) (molar ratio roMSV65 to myostatin) [2] does the source give for B3 here?
Its rescue of myostatin inhibited myoblast proliferation (C2C12, methylene blue assay) (molar ratio roMSV65 to myostatin) is 20.
